From patent publication US20260062487A1 (GRITSTONE BIO, published 2026)
Read-outs that look alike come from different tables or passages of the source.

Assays:
[1] = target: HLA-PEPTIDE target A*01:01_… (G2) on cells (human); assay: cell-based or functional assay
[2] = target: T1, HLA-PEPTIDE target A*01:01_… (G2) on cells (human); assay: IP-MS, NCI-H1703 lysate, Rep1
T1 construct: whole, on cells; also recovered from cell lysates in the IP-MS experiment; also called G2 pHLA; G2 target
Description: (§1) 2×10⁸ cells expressing A*01:01/CT83 (NCI-H1703, A375±CT83) were re-suspended in 5 ml lysis buffer (1% CHAPS, 150 mM sodium chloride, 20 mM Tris pH 8) in the presence of phosphatase, and protease inhibitors. The cells were homogenized by sonication, rotated at 4° C. for 1 hr, and spun at 21,000×g for 30 min. to pellet cell debris.
(§2) After immunoprecipitation, the IP beads were isolated using filter plates, then washed to remove non-specific binding using Tris pH 8 buffers with increasing levels of NaCl. The HLA/peptide complex was eluted from the beads using 2N acetic acid. The protein components were removed from the peptides using C18 fractionation. The resultant peptides were taken to dryness by SpeedVac evaporation and stored at −20° C. prior to MS analysis.

[3] = target: T2, off-target HLA-A*01:01_… (PTS) on cells (human); assay: IP-MS, NCI-H1703 lysate, Rep1
T2 construct: whole, on cells; also called validated OTLA; Control peptide-3
Description: as §1, §2

[4] = target: T3, off-target HLA-A*01:01_… (ICE1) on cells (human); assay: IP-MS, NCI-H1703 lysate, Rep1
T3 construct: whole, on cells; also called … (IC1); validated OTLA
Description: as §1, §2

[5] = target: T4, HLA-A*01:01 with … (ERGIC3) from cells (human); assay: IP-MS, NCI-H1703 lysate, Rep1
T4 construct: whole, on cells
Description: as §1, §2

[6] = target: T1, HLA-PEPTIDE target A*01:01_… (G2) on …; assay: IP-MS, NCI-H1703 lysate, Rep2
Description: as §1, §2

[7] = target: T2, off-target HLA-A*01:01_… (PTS) on cells; assay: IP-MS, NCI-H1703 lysate, Rep2
Description: as §1, §2

[8] = target: T3, off-target HLA-A*01:01_… (ICE1) on cells; assay: IP-MS, NCI-H1703 lysate, Rep2
Description: as §1, §2

[9] = target: T4, HLA-A*01:01 with … (ERGIC3) from cells; assay: IP-MS, NCI-H1703 lysate, Rep2
Description: as §1, §2

[10] = target: T5, G5 pHLA (HLA-B*35:01 with …) on cells (human); assay: flow cytometry, peptide-pulsed cells
T5 construct: whole, on cells
Description: (§3) HLA-transduced K562 cells were pulsed the night before with 50 μM of peptide (Genscript) in IDMEM containing 1% FBS in 6 well plates and incubated under standard tissue culture conditions. Cells were harvested, washed in PBS, and stained with eBioscience Fixable Viability Dye eFluor 450 for 15 minutes at room temperature. […] After another wash, PE-conjugated goat anti-human IgG secondary antibody (Jackson ImmunoResearch) was added at 1:100. After incubating at 4° C. for 45 minutes and washing in PBS+2% FBS, cells were resuspended in PBS+2% FBS and analyzed by flow cytometry. Flow cytometric analysis was performed on the Attune NxT Flow Cytometer (ThermoFisher) using the Attune NxT Software. Data was analyzed using FlowJo.

[11] = target: T1, HLA-PEPTIDE target A*01:01_… (G2) on …; assay: flow cytometry, K562-HLA cells pulsed with peptide
[12] = target: T6, A*01:01 with … (V or E 1) on pulsed K562-HLA cells (human); assay: flow cytometry, K562-HLA cells pulsed with peptide
T6 construct: whole, on cells

[13] = target: T7, A*01:01 with … (V or E 2) on pulsed K562-HLA cells (human); assay: flow cytometry, K562-HLA cells pulsed with peptide
T7 construct: whole, on cells

[14] = target: T8, A*01:01 with … (V or E 3) on pulsed K562-HLA cells (human); assay: flow cytometry, K562-HLA cells pulsed with peptide
T8 construct: whole, on cells

[15] = target: T9, A*01:01 with … (V or E 4) on pulsed K562-HLA cells (human); assay: flow cytometry, K562-HLA cells pulsed with peptide
T9 construct: whole, on cells

[16] = target: T10, A*01:01 with … (V or E 5) on pulsed K562-HLA cells (human); assay: flow cytometry, K562-HLA cells pulsed with peptide
T10 construct: whole, on cells

[17] = target: T11, A*01:01 with … (V or E 6) on pulsed K562-HLA cells (human); assay: flow cytometry, K562-HLA cells pulsed with peptide
T11 construct: whole, on cells

CD3 on CD3+ Jurkat cells [18] = target: T12, CD3 on CD3+ Jurkat cells (human, UniProt P07766 23-207); assay: flow cytometry, anti IgG PE, CD3+ Jurkat cells
T12 construct: whole, on cells
T12 sequence (P07766 23-207): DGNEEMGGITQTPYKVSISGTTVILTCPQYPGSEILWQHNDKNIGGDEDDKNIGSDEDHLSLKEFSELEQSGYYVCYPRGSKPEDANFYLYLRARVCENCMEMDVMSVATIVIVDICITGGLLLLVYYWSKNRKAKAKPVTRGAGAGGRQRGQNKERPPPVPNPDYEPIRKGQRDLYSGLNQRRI
Description: Increasing concentrations of the antibodies were incubated with CD3(+) and CD9(−) Jurkat cells. Binding was determined by flow cytometery using an anti IgG-PE antibody for detection.

[19] = target: T1, HLA-PEPTIDE target A*01:01_… (G2) on …; assay: flow cytometry, anti-IgG PE, peptide-pulsed K562 cells
Description: as §3

[20] = target: T4, HLA-A*01:01 with … (ERGIC3) from cells; assay: IP-MS, K562-A*01:01 lysate (ND: Not detected; W6/32 recovers the peptide)
Description: as §1, §2

[21] = target: T1, HLA-PEPTIDE target A*01:01_… (G2) on …; assay: flow cytometry, anti IgG PE, A375 9mer cells (1e6 copies per cell)
Description: (§4) A375 transduced with luciferase alone served as the negative control. […] Binding was determined by flow cytometery using an anti IgG-PE antibody for detection.

[22] = target: T1, HLA-PEPTIDE target A*01:01_… (G2) on …; assay: flow cytometry, anti IgG PE, A375 9mer cells (1e6 copies of G2 pHLA per cell)
[23] = target: T1, HLA-PEPTIDE target A*01:01_… (G2) on …; assay: flow cytometry, anti-IgG PE, K562-A01:01 cells pulsed with peptide (20,000 to 40,000 copies/cell)
Description: as §3

[24] = target: T13, off-target HLA-A*01:01_… (KDM7A) on cells (human); assay: as above
T13 construct: whole, on cells; also called validated OTLA; Control peptide-4
Description: as §3

[25] = target: T14, refolded A*01:01/b2m complex with the ROBO1 peptide … (human, UniProt P61769 21-119); assay: BLI (Octet), refolded pHLA
T14 construct: also called ROBO1 pHLA complex

CD3 on CD3+ Jurkat cells [26] = target: T12, CD3 on CD3+ Jurkat cells; assay: flow cytometry, anti IgG PE, CD3+ Jurkat cells; remark: listed apart in the source
[27] = target: T1, HLA-PEPTIDE target A*01:01_… (G2) on …; assay: flow cytometry, anti IgG PE, A375 9mer cells (1e6 copies per cell); remark: listed apart in the source
Description: as §4

[28] = target: T15, biotinylated refolded G2-pHLA (A*01:01/b2m/…) (human, biotinylated at the C-terminal AviTag); assay: Octet biolayer interferometry, 120 s association and 120 s dissociation
T15 construct: Soluble complex caught on streptavidin sensors or MSD plates; also called G2-peptide A*01:01/b2m complex; WT

[29] = target: T14, refolded A*01:01/b2m complex with the …; assay: as above

B1: 41-E07 hOKT3a diabody (Format 41 31E07-CD3 bispecific antibody) (bispecific antibody, human IgG1, kappa)
chain: QVQLVQSGAEVKKPGASVKVSCKASGFTFTNYLIHWVRQAPGQGLEWMGWINPNSGGTNYAQRLQGRVTMTRDTSTSTVYMELSSLRSEDTAVYYCARDYGAGNDYWGQGTLVTVSSGGGGSGGGGSDIQMTQSPSSLSASVGDRVTITCRASQEIRRWLAWYQQKPGKAPKLLIYAASNLQSGVPSRFSGSGSGTDFTLTISSLQPEDFATYYCQQSYSTPYTFGQGTKLEIKGGGGSEPKSSDKTHTCPPCPAPEFEGGPSVFLFPPKPKDTLMISRTPEVTCVVVDVSHEDPEVKFNWYVDGVEVHNAKTKPREEQYNSTYRVVSVLTVLHQDWLNGKEYKCKVSNKALPASIEKTISKAKGQPREPQVYTLPPCREEMTKNQVSLWCLVKGFYPSDIAVEWESNGQPENNYKTTPPVLDSDGSFFLYSKLTVDKSRWQQGNVFSCSVMHEALHNHYTQKSLSLSPGK
heavy: QVQLVQSGAEVKKPGASVKVSCKASGFTFTNYLIHWVRQAPGQGLEWMGWINPNSGGTNYAQRLQGRVTMTRDTSTSTVYMELSSLRSEDTAVYYCARDYGAGNDYWGQGTLVTVSSGGGGSGGGGSDIQMTQSPSSLSASVGDRVTITCRASQEIRRWLAWYQQKPGKAPKLLIYAASNLQSGVPSRFSGSGSGTDFTLTISSLQPEDFATYYCQQSYSTPYTFGQGTKLEIKGGGGSGGGGSQVQLVQSGAEVKKPGASVKVSCKASGYTFTRYTMHWVRQAPGQGLEWMGYINPSRGYTNYNQKFKDRVTLTTDKSSSTAYMELSSLRSEDTAVYYCARYYDDHYSLDYWGQGTLVTVSSASTKGPSVFPLAPSSKSTSGGTAALGCLVKDYFPEPVTVSWNSGALTSGVHTFPAVLQSSGLYSLSSVVTVPSSSLGTQTYICNVNHKPSNTKVDKRVEPKSCDKTHTCPPCPAPEFEGGPSVFLFPPKPKDTLMISRTPEVTCVVVDVSHEDPEVKFNWYVDGVEVHNAKTKPREEQYNSTYRVVSVLTVLHQDWLNGKEYKCKVSNKALPASIEKTISKAKGQPREPQVCTLPPSREEMTKNQVSLSCAVKGFYPSDIAVEWESNGQPENNYKTTPPVLDSDGSFFLVSKLTVDKSRWQQGNVFSCSVMHEALHNRFTQKSLSLSPGK
light: DIQMTQSPSSLSASVGDRVTITCSASSSVSYMNWYQQKPGKAPKRLIYDTSKLASGVPSRFSGSGSGTDFTLTISSLQPEDFATYYCQQWSSNPFTFGQGTKLEIKRTVAAPSVFIFPPSDEQLKSGTASVVCLLNNFYPREAKVQWKVDNALQSGNSQESVTEQDSKDSTYSLSSTLTLSKADYEKHKVYACEVTHQGLSSPVTKSFNRGEC
notes: also called E07-CD3 diabody; 41-31E07-hOKT3a
- EC50 (ug/ml), luciferase-cytotoxicity assay with human T cells, A375-CT83 cells [1]: 0.00017 µg/mL
- EC50 (ug/ml), luciferase-cytotoxicity assay with human T cells, NCI-H820 cells [1]: 0.077 µg/mL
- EC50 (ug/ml), luciferase-cytotoxicity assay with human T cells, NCI-H1703 cells [1]: 0.0025 µg/mL
- copies per cell of the peptide recovered by immunoprecipitation [2]: 2960 copies per cell
- copies per cell of the peptide recovered by immunoprecipitation [3]: 40 copies per cell
- copies per cell of the peptide recovered by immunoprecipitation [4]: 33 copies per cell
- copies per cell of the peptide recovered by immunoprecipitation [5]: 34 copies per cell
- copies per cell of the peptide recovered by immunoprecipitation [6]: 2960 copies per cell
- copies per cell of the peptide recovered by immunoprecipitation [7]: 42 copies per cell
- copies per cell of the peptide recovered by immunoprecipitation [8]: 32 copies per cell
- copies per cell of the peptide recovered by immunoprecipitation [9]: 37 copies per cell
- log difference in EC50 against the G2 peptide [..] [10]: 3 log
- Max Binding [11]: 5560
- Max Binding [12]: 1880
- Max Binding [13]: 4680
- Max Binding [14]: 5680
- Max Binding [15]: 1560
- Max Binding [16]: 2630
- Max Binding [17]: 1400
- EC50 (read off the curve) (CD3 on CD3+ Jurkat cells [18]): ~20 nM
- EC50 (read off the curve) [19]: ~0.06 µg/mL
- binding result [20]: no binding
- EC50 (read off the curve) [21]: ~2 nM
- EC50 (read off the curve) [22]: ~3 nM
- EC50 (read off the curve) [23]: ~0.3 µg/mL
- binding result [24]: no binding (tested: 100 ug/ml)

B2: 41-E07 UCHT1v9 (Format 41 31E07-CD3 bispecific antibody) (bispecific antibody, human IgG1, kappa)
chain: B1 chain
heavy: QVQLVQSGAEVKKPGASVKVSCKASGFTFTNYLIHWVRQAPGQGLEWMGWINPNSGGTNYAQRLQGRVTMTRDTSTSTVYMELSSLRSEDTAVYYCARDYGAGNDYWGQGTLVTVSSGGGGSGGGGSDIQMTQSPSSLSASVGDRVTITCRASQEIRRWLAWYQQKPGKAPKLLIYAASNLQSGVPSRFSGSGSGTDFTLTISSLQPEDFATYYCQQSYSTPYTFGQGTKLEIKGGGGSGGGGSEVQLVESGGGLVQPGGSLRLSCAASGYSFTGYTMNWVRQAPGKGLEWVALINPYKGVSTYNQKFKDRFTISVDKSKNTAYLQMNSLRAEDTAVYYCARSGYYGDSDWYFDVWGQGTLVTVSSASTKGPSVFPLAPSSKSTSGGTAALGCLVKDYFPEPVTVSWNSGALTSGVHTFPAVLQSSGLYSLSSVVTVPSSSLGTQTYICNVNHKPSNTKVDKRVEPKSCDKTHTCPPCPAPEFEGGPSVFLFPPKPKDTLMISRTPEVTCVVVDVSHEDPEVKFNWYVDGVEVHNAKTKPREEQYNSTYRVVSVLTVLHQDWLNGKEYKCKVSNKALPASIEKTISKAKGQPREPQVCTLPPSREEMTKNQVSLSCAVKGFYPSDIAVEWESNGQPENNYKTTPPVLDSDGSFFLVSKLTVDKSRWQQGNVFSCSVMHEALHNRFTQKSLSLSPGK
light: not shown
notes: also called 41-31E07-UCHT1v9; 41-E07 hUCHT1v9
- times less binding affinity than to the G2-peptide A*01:01/b2m complex [25]: 5000 fold
- EC50 (read off the curve) (CD3 on CD3+ Jurkat cells [18]): ~3 nM
- EC50 (read off the curve) (CD3 on CD3+ Jurkat cells [26]): ~2 nM
- EC50 (read off the curve) [21]: ~2 nM
- EC50 (read off the curve) [27]: ~2 nM
- Kd [28]: < 0.001 nM
- koff [28]: < 1e-07 s⁻¹
- kon [28]: 566000 M⁻¹ s⁻¹
- Kd [29]: 5.52 nM
- koff [29]: 0.00557 s⁻¹
- kon [29]: 1.01e+06 M⁻¹ s⁻¹
